Read-outs that look alike come from different tables or passages of the source.

In assay [1] the target is 3D7 PfRH5-Cd4-biotin (P. falciparum Reticulocyte Binding Protein Homologue 5, 3D7 variant) (Plasmodium falciparum (3D7)). Put plainly: SPR; equilibrium analysis; biotinylated PfRH5-Cd4 captured on a streptavidin chip, biotinylated rat Cd4d3+4 in the reference cell; serial dilutions of basigin-Cd4-6H injected at 20 µl/min; BIAcore T100, 37°C, HBS-EP; regeneration with 2M NaCl. Background: Surface plasmon resonance follows binding to a sensor surface in real time, without labels.

Assay [2] has as its target 7G8 PfRH5-Cd4-biotin (P. falciparum Reticulocyte Binding Protein Homologue 5, 7G8 variant) (Plasmodium falciparum (7G8)). The assay is described as above.
Assay [3] has as its target GB4 PfRH5-Cd4-biotin (P. falciparum Reticulocyte Binding Protein Homologue 5, GB4 variant) (Plasmodium falciparum (GB4)). The assay is described as above.
Assay [4] deals with 7G8 PfRH5-Cd4-biotin (P. falciparum Reticulocyte Binding Protein Homologue 5, 7G8 variant) (Plasmodium falciparum (7G8)). The assay is described as above. This is another data set of the same source.
Assay [5] concerns the target GB4 PfRH5-Cd4-biotin (P. falciparum Reticulocyte Binding Protein Homologue 5, GB4 variant) (Plasmodium falciparum (GB4)). The assay is described as above. This is another data set of the same source.
Assay [6] shares this target. The description is as above. The source holds these as a separate data set.
Assay [7] concerns the target 3D7 PfRH5-Cd4-biotin (P. falciparum Reticulocyte Binding Protein Homologue 5, 3D7 variant) (Plasmodium falciparum (3D7)). Put plainly: SPR; kinetic analysis, simple 1:1 model fitted globally; biotinylated PfRH5-Cd4 captured on a streptavidin chip, biotinylated rat Cd4d3+4 in the reference cell; serial dilutions of basigin-Cd4-6H injected at 100 µl/min; BIAcore T100, 37°C, HBS-EP; regeneration with 2M NaCl.

The target is the same in assay [8]. Described as above. This is another data set of the same source.
The target is the same in assay [9]. The assay is described as above. The source holds these as a separate data set.
Assay [10] concerns the target 7G8 PfRH5-Cd4-biotin (P. falciparum Reticulocyte Binding Protein Homologue 5, 7G8 variant) (Plasmodium falciparum (7G8)). The description is as above.
Assay [11] has as its target GB4 PfRH5-Cd4-biotin (P. falciparum Reticulocyte Binding Protein Homologue 5, GB4 variant) (Plasmodium falciparum (GB4)). The description is as above.
For assay [12], the target named is 7G8 PfRH5-Cd4-biotin (P. falciparum Reticulocyte Binding Protein Homologue 5, 7G8 variant) (Plasmodium falciparum (7G8)). The assay is described as above. The source holds these as a separate data set.
Assay [13] shares this target. Described as above. The source holds these as a separate data set.
For assay [14], the target named is GB4 PfRH5-Cd4-biotin (P. falciparum Reticulocyte Binding Protein Homologue 5, GB4 variant) (Plasmodium falciparum (GB4)). The description is as above. This is another data set of the same source.
Assay [15] shares this target. The description is as above. The source holds these as a separate data set.
Assay [16] has as its target human basigin extracellular region, soluble Cd4d3+4-6H-tagged (basigin-Cd4-6H) (human, UniProt P35613 138-325). Put plainly: SPR; BIAcore T100; monomeric biotinylated PfRH5-Cd4 bait captured on a streptavidin-coated chip, Cd4-biotin in the reference flow cell; serial dilutions of purified basigin-Cd4-6H injected at 20 ul/min (equilibrium) or 100 ul/min (kinetics); Langmuir isotherm fit. To be noted: both partners purified.

As a reminder, the Kd is the free concentration of one partner at which half of the binding sites on the other are occupied at equilibrium, for simple one-to-one binding. High values mean a looser complex, low ones a tighter complex. The term koff denotes a measure of how fast the partners let go of each other. Lower therefore signals slow dissociation. What is called kon is the second-order rate constant of association. Low readings indicate slower complex formation, high ones faster complex formation. Consider “basigin-L-Cd4d3+4-6H (extracellular region of human basigin) (from UniProt P35613 138-325) (domain or fragment)”, for which the Kd in assay [1] stood at 1600 nM; in [2] it was 1000 nM; in assay [3], 1100 nM; in [4], 800 nM; in [5], 1000 nM; in assay [6] it was 800 nM. Further, the koff in assay [7] is 0.238 s⁻¹; in assay [8], 0.236 s⁻¹; in assay [9] it was 0.24 s⁻¹; in assay [10], 0.256 s⁻¹; in assay [11] it was 0.216 s⁻¹; in assay [12], 0.251 s⁻¹. The koff amounted to 0.245 s⁻¹ in [13], 0.23 s⁻¹ in assay [14] and 0.244 s⁻¹ in [15]. Also, the kon in assay [7] turned out to be 93000 M⁻¹ s⁻¹; in assay [8], 95600 M⁻¹ s⁻¹; in assay [9] it was 89600 M⁻¹ s⁻¹; in [10], 128000 M⁻¹ s⁻¹; in assay [11], 118000 M⁻¹ s⁻¹; in [12], 125000 M⁻¹ s⁻¹. The on-rate constant (kon) in [13] was 122000 M⁻¹ s⁻¹; in assay [14], 110000 M⁻¹ s⁻¹; in assay [15], 95900 M⁻¹ s⁻¹.

B1: 7G8 PfRH5-Cd4-biotin (P. falciparum Reticulocyte Binding Protein Homologue 5, 7G8 variant) (ligand)
chain: FENAIKKTKNQENNLALLPIKSTEEEKDDIKNGKDIKKEIDNDKENIKTNNAKDHSTYIKSYLNTNVNDGLKYLFIPSHNSFIKKYSVFNQINDGMLLNEKNDVKNNEDYKNVDYKNVNFLQYHFKELSNYNIANSIDILQEKEGHLDFVIIPHYTFLDYYKHLSYNSIYHKSSTYGKYIAVDAFIKKINEAYDKVKSKCNDIKNDLIATIKKLEHPYDINNKNDDSYRYDISEEIDDKSEETDDETEEVEDSIQDTDSNHAPSNKKKNDLMNRAFKKMMDEYNTKKKKLIKCIKNHENDFNKICMDMKNYGTNLFEQLSCYNNNFCNTNGIRYHYDEYIHKLILSVKSKNLNKDLSDMTNILQQSELLLTNLNKKMGSYIYIDTIKFIHKEMKHIFNRIEYHTKIINDKTKIIQDKIKLNIWRTFQKDELLKRILDMSNEYSLFITSDHLRQMLYNTFYSKEKHLNNIFHHLIYVLQMKFNDVPIKMEYFQTYKKNKPLTQ
modifications: monobiotinylated (biotin)
Molecule B1 returned a Kd in [16] of 900 nM. This lies in the sub-micromolar range.
